Molecular target: T1, phiC31 integrase (phiC31o, mammalian codon-optimized) (Streptomyces phage phiC31) (UniProt Q9T221)
T1 sequence: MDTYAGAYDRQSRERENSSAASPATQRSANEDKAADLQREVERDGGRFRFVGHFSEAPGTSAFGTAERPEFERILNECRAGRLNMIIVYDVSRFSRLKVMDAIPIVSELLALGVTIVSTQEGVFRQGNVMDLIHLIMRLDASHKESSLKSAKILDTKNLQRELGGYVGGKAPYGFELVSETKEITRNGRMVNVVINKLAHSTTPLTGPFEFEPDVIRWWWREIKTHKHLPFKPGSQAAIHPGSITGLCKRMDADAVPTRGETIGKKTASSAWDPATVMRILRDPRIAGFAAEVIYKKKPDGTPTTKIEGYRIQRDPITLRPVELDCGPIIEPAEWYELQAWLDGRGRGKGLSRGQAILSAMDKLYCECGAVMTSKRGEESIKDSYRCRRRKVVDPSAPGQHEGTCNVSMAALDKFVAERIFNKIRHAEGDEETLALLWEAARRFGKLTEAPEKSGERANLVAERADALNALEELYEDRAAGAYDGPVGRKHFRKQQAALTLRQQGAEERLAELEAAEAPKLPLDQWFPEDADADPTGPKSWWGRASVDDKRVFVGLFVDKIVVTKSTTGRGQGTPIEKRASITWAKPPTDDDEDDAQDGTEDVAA
Assay: cell_activity

Row | Substance | activity (% of F0 with site-specific integration) (H11P(NVphi), mixed background, pooled 8/102, partner attB, mouse zygote injection) | activity (% of F0 with site-specific integration) (attB plasmid pattB-pCA-GFP into H11P3NVphi, 10/64, 0/32 without integrase mRNA)
1 | full-length phiC31 attP (pTA-attP) | 7.8 | 
2 | full-length phiC31 attB (pTA-attB) |  | 15.6

Source: patent US20120124686
